The target of this experiment is T1, LMO4 second LIM domain, residues 77-147 (in the tethered complex) (mouse, UniProt P61969 77-147).
T1 construct: LMO4, mouse, LIM2 domain, residues 77-147; also called LMO4_(LIM2); LMO4_(77–147)
T1 sequence (looked up): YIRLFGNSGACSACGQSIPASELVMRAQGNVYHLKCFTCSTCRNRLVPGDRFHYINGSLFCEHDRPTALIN
Description: NMR solution structure; the two domains tethered on one chain by a glycine-serine linker; 20 mM sodium acetate pH 5.0, 35 mM NaCl, 0.5 mM TCEP-HCl. The note with it: both partners purified.

The values that follow come from publication PMC4195752, “The Structure of an LIM-Only Protein 4 (LMO4) and Deformed Epidermal Autoregulatory Factor-1 (DEAF1) Complex Reveals a Common Mode of Binding to LMO4” (PLoS ONE, 2014).

B1: DEAF1 residues 404-418 (in the tethered complex) (peptide, UniProt Q9Z1T5-1 404-418, looked up)
chain: IAPFPEAALPTSHPK
notes: Stood in the assay joined through a glycine-serine linker to the C-terminus of LMO4 77-147 on one chain; also called the DEAF1 peptide
Take B1: the binding result was “binds”.
